From paper PMC1592478 come the findings set out here.

The assay deals with human syndecan-1 with C-terminal HA tag (Syn-1-HA), stably expressed on GM00701 cells (human) (UniProt P18827). Put plainly: radioligand binding; ^125I-apoE-VLDL (2 μg/ml; in Figure 2C supplemented with 3 μg/ml apoE) on GM00701 or GM00701/Syn-1-HA cells, 4°C, 3 h, 20 mM Hepes pH 7.4, 150 mM NaCl, 2 mM CaCl2, 1% BSA; without or with unlabeled apoE-VLDL (100 μg/ml); specific binding = total minus non-competable.
Sequence of UniProt P18827 (P18827 23-310): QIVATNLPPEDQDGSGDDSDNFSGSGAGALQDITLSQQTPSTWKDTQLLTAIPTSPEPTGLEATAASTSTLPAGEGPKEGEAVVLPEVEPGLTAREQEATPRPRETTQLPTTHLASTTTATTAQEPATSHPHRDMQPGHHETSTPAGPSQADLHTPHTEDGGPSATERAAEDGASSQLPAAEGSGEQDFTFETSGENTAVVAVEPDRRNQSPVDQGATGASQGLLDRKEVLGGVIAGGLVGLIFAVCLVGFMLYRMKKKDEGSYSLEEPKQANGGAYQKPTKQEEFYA

Consider “apoE-VLDL (very low density lipoprotein particles with apoB100 and apoE, from rabbit plasma) (from UniProt P18287 19-311; P17165 1-144) (complex)”, for which the fold increase in specific binding over control GM00701 cells was found to be 5 fold.
